Patent US20090170718, “High-stringency screening of target-binding partners using a microfludic device” (published 2009)

How the values were obtained:
[1] = target: T1, Botulinum neurotoxin type A light chain (BoNT/A-rLc) (UniProt P0DPI1 P0DPI1:2-448); test: SPR; conditions: tags: List Biological Laboratories; coupled via amines to Dynabeads M-270 carboxylic acid for selection and bead assays
[2] = target: T1, Botulinum neurotoxin type A light chain …; test: SPR; 20 mM HEPES, 150 mM NaCl, 2 mM KCl, 2 mM MgCl2, 2 mM CaCl2, pH 7.4; […]; conditions: tags: List Biological Laboratories; coupled via amines to Dynabeads M-270 carboxylic acid for selection and bead assays

B1: aptamer a (ssDNA)
DNA: AGCAGCACAGAGGTCAGATGTCTTTCATACCGAGGTTGATCCAGTAGTATTCTTATCTAATTTGTTTTGTTCGTATGTGCCCTATGCGTGCTACCGTGAA
Which Kd [1] does the source give for B1 here?
The Kd was 65 nM.

B2: aptamer c (ssDNA)
DNA: AGCAGCACAGAGGTCAGATGCTTGAGTGTCATGGACGTTCCGGTCTTGGGCGGGATATTTGTTTGTTTTCTGCCTATGTTCCTATGCGTGCTACCGTGAA
How did the Kd [2] turn out when B2 was run?
Its Kd is 34 nM.

B3: aptamer b (ssDNA)
DNA: AGCAGCACAGAGGTCAGATGTGGTCTTGTCTTTCATTCCAGGTGGCGAGTCAAATCGATACTGATCCGCTGACACAGGATCCTATGCGTGCTACCGTGAA
How did the Kd [1] turn out when B3 was run?
The Kd was 86 nM.

B4: aptamer d (ssDNA)
DNA: AGCAGCACAGAGGTCAGATGTCAGATGGCCGGACTCAGGCACTAGACCACTATGCTTCCGTTGCCATTCATCGGCACGTCCTATGCGTGCTACCGTGAA
For B4, which Kd [1] is on record?
The Kd was 53 nM.
